Data reported in patent US20200407442A1.
Numbering of substitutions follows the chain as printed. Read-outs that look alike come from different tables or passages of the source. Values belong to the binder of their own block, whether it stands above or below them.

Key:
[1] = biological target: full-length cynomolgus LAG-3 on cells (cynomolgus); assay: FACS on cynomolgus LAG-3-expressing 293F cells (target not labelled in the table)
Target sequence in this assay (P18627 other isoform, or with tags, fused parts or gaps limits assumed, form in doubt): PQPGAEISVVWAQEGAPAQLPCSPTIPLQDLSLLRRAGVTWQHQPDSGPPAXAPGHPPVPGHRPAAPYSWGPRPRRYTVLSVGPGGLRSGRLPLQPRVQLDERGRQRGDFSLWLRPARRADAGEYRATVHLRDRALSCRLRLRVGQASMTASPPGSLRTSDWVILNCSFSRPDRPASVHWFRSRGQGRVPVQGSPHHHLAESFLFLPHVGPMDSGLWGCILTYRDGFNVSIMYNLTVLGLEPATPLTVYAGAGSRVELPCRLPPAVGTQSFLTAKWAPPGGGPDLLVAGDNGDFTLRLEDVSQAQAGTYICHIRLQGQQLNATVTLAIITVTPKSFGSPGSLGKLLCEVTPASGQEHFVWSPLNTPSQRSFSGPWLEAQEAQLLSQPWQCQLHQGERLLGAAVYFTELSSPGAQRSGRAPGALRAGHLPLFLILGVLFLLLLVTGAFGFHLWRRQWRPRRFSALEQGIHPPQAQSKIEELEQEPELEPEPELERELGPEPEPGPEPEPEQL

[2] = biological target: human LAG-3 protein (SPR analyte) (human) (UniProt P18627); assay: SPR Biacore 8K, antibody captured by anti-human Fc, LAG-3 as analyte
human LAG-3 protein (SPR analyte) (human), sequence (P18627 30-450 limits assumed): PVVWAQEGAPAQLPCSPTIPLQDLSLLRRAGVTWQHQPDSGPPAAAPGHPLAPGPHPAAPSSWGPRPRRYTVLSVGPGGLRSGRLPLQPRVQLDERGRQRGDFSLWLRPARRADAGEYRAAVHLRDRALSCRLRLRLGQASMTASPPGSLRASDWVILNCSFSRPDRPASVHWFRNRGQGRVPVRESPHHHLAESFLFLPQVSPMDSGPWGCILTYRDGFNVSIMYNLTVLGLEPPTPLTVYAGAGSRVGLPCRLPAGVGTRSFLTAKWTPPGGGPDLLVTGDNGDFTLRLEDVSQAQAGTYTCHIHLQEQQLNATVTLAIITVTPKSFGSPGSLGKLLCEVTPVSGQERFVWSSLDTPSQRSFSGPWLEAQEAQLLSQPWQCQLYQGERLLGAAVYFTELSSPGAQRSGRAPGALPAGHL

[3] = biological target: full-length human LAG-3 on cells (human) (UniProt P18627); assay: FACS affinity on Flp-In-293 cells expressing human LAG-3
full-length human LAG-3 on cells (human), sequence (P18627 23-525 limits assumed): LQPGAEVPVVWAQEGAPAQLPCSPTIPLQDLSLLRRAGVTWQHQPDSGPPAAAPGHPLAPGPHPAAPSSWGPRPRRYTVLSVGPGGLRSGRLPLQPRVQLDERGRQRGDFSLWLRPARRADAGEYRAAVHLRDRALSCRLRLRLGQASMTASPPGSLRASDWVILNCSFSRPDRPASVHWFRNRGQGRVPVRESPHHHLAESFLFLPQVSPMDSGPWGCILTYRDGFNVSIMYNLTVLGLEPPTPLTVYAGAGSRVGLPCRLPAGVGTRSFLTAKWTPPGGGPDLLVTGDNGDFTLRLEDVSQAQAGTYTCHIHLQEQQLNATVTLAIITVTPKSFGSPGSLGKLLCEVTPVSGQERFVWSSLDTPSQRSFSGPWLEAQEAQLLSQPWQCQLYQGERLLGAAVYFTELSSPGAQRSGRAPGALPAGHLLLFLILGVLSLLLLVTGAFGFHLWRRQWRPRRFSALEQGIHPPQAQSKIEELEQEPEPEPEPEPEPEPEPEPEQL

[4] = biological target: full-length human LAG-3 on cells (human) (UniProt P18627); assay: cell-based or functional assay
[5] = biological target: mFc-tagged LAG-3 protein (human) (UniProt P18627); assay: ELISA competition: blocks mFc-tagged LAG-3 binding to coated Galectin-3
mFc-tagged LAG-3 protein (human), sequence (P18627 30-450): as the sequence (P18627 30-450 limits assumed) above

[6] = biological target: full-length cynomolgus LAG-3 on cells (cynomolgus); assay: FACS on cynomolgus LAG-3-expressing 293F cells (target not labelled in the table); remark: listed apart in the source
Target sequence in this assay (P18627 other isoform, or with tags, fused parts or gaps limits assumed, form in doubt): as the sequence (P18627 other isoform, or with tags, fused parts or gaps limits assumed, form in doubt) above

[7] = biological target: mFc-tagged LAG-3 protein (human) (UniProt P18627); assay: FACS competition: blocks mFc-tagged LAG-3 binding to MHC-II on Raji cells
[8] = biological target: full-length human LAG-3 on cells (human) (UniProt P18627); assay: FACS on human LAG-3 transfectant cells
[9] = biological target: mFc-tagged LAG-3 protein (human) (UniProt P18627); assay: ELISA competition: blocks mFc-tagged LAG-3 binding to coated LSECtin

EC50 [1]: 3.92 nM
B1: 3.40.19-uAb-IgG4L (antibody, V domains shown)
VH: QLQLQESGPGLVKPSETLSLTCTVSGDSISSTSYYWGWIRQPPGKGLEWIGSFYYSGSTYYNPSLKSRVTISVDTSKNQFSLKLNSVTAADTAVYYCARMQLWSYDVDVWGQGTTVTVSS
VL: QSALTQPASVSGSPGQSITISCTGTSSDVGGYDYVAWYQQHPGKVPKLMIYDVSERPSGVSNRFSGSKSGNTASLTISGLQAEDEADYYCSSYTSTTTLVVFGGGTKLSVL

Kd [2]: 0.497 nM
koff [2]: 0.000106 s⁻¹
kon [2]: 213000 M⁻¹ s⁻¹
Kd [3]: 0.58 nM
EC50, IL-2 luciferase reporter gene assay (Jurkat cells expressing human LAG-3 with Raji cells and SEE) [4]: 2.65 nM
EC50 [5]: 0.79 nM
EC50 [6]: 2.65 nM
EC50 [7]: 1.25 nM
EC50 [8]: 0.61 nM
EC50 [9]: 0.59 nM
B2: BMK7 (antibody, INN chains, looked up, V domains shown)
VH: QVQLVESGGGVVQPGRSLRLSCVASGFTFSSYGMHWVRQAPGKGLEWVAIIWYDGSNKYYADSVKGRFTISRDNSKNTQYLQMNSLRAEDTAVYYCASVATSGDFDYYGMDVWGQGTTVTVSS
VL: EIVLTQSPATLSLSPGERTTLSCRASQRISTYLAWYQQKPGQAPRLLIYDASKRATGIPARFSGSGSGTGFTLTISSLEPEDFAVYYCQQRSNWPLTFGGGTKVEIK

EC50 [1]: 4.01 nM
B3: 1.53.3-uAb-IgG4k (antibody, V domains shown)
VH: QVQLQQWGAGLLKPSETLSLTCGVYGGSFSGYYWSWIRQPPGMGLEWIGEINHRGNTNYNPSLKSRVTISEDTSKNQFSLRLSSVTAADTAVYFCTRGEDYSDYDYYGDFWGQGTLVTVSS
VL: B2 VL with P15Q, T19A, R28S, T31S, D50A, K53N, G70D, V85I
